Patent US20140120058A1, “POLYMER CONJUGATED PROSTAGLANDIN ANALOGUES” (POLYACTIVA PTY LTD, priority 2011, published 2014)

Assay: In vitro drug release from melt-extruded rods in isotonic phosphate buffer
Assay type: physicochemical
Settings: rod-shaped samples, isotonic phosphate buffer pH 7.4, 37° C.; for Release Rate (ng of free acid Latanoprost/mg polymer drug conjugate/24 hours): continuous stirring, HPLC-UV
Experimental: Following in vitro release guidelines recommended by the International Organisation of Standardisation, rod-shaped samples prepared by melt extrusion, were suspended in wire baskets which were immersed in isotonic phosphate buffer (IPB), adjusted to pH 7.4 using orthophosphoric acid and containing 0.01% sodium azide as a preservative, and incubated at 37° C. with continuous stirring. Aliquots of the receptor solution were removed for analysis at predetermined time points until drug release from the polymer no longer increased.
The amount of prostaglandin drug released from the rods at the various time points was quantified by reverse phase high performance liquid chromatography (HPLC) with a UV absorbance detector and analyte separation was performed on a C18 column either isocratically or with a gradient system using a degassed mobile phase.
Using the above method, the rate of release of the prostaglandin drug latanoprost from various polymer-drug conjugates was determined.

Substance | Period of zero-order release | Release Rate (ng of free acid Latanoprost/mg polymer drug conjugate/24 hours)
Polyurethane of (Z)-1,3-dihydroxypropan-2-yl 7-((1R,2R,3R,5S)-3,5-dihydroxy-2-((R)-3-hydroxy-5-phenylpentyl)cyclopentyl)hept-5-enoate and DVDIP [Example 12] | 61 days | 637 ng of free acid Latanoprost/mg
Polyurethane of (Z)-3-hydroxy-2-(hydroxymethyl)-2-methylpropyl 7-((1R,2R,3R,5S)-3,5-dihydroxy-2-((R)-3-hydroxy-5-phenylpentyl)cyclopentyl)hept-5-enoate and DVDIP [Example 16] | 61 days | 138 ng of free acid Latanoprost/mg
Polyurethane of (Z)-1,3-dihydroxypropan-2-yl 7-((1R,2R,3R,5S)-3,5-dihydroxy-2-((R)-3-hydroxy-5-phenylpentyl)cyclopentyl)hept-5-enoate and ELDI [Example 10] | 61 days | 899 ng of free acid Latanoprost/mg
